{"source": "paper PMC3985698", "origin": "cited, not measured here", "biological_target": "Bad (Homo sapiens) (UniProt Q92934)", "sequence (Q92934 whole entry)": "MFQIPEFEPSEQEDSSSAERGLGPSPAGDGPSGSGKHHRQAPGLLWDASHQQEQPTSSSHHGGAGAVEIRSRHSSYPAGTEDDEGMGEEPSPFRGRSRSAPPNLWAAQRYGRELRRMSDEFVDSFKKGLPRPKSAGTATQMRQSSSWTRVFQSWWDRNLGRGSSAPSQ", "details": "cited from earlier work", "data": [{"substance": "Bcl-xL (from UniProt Q07817)", "values": [{"measurement": "Kd", "result": 0.6, "unit": "nM"}]}]}
